The target in one data set is T1, Tim-Tipin complex (mouse, UniProt Q9R1X4;Q91WA1 1-1134;1-278).
T1 sequence 1: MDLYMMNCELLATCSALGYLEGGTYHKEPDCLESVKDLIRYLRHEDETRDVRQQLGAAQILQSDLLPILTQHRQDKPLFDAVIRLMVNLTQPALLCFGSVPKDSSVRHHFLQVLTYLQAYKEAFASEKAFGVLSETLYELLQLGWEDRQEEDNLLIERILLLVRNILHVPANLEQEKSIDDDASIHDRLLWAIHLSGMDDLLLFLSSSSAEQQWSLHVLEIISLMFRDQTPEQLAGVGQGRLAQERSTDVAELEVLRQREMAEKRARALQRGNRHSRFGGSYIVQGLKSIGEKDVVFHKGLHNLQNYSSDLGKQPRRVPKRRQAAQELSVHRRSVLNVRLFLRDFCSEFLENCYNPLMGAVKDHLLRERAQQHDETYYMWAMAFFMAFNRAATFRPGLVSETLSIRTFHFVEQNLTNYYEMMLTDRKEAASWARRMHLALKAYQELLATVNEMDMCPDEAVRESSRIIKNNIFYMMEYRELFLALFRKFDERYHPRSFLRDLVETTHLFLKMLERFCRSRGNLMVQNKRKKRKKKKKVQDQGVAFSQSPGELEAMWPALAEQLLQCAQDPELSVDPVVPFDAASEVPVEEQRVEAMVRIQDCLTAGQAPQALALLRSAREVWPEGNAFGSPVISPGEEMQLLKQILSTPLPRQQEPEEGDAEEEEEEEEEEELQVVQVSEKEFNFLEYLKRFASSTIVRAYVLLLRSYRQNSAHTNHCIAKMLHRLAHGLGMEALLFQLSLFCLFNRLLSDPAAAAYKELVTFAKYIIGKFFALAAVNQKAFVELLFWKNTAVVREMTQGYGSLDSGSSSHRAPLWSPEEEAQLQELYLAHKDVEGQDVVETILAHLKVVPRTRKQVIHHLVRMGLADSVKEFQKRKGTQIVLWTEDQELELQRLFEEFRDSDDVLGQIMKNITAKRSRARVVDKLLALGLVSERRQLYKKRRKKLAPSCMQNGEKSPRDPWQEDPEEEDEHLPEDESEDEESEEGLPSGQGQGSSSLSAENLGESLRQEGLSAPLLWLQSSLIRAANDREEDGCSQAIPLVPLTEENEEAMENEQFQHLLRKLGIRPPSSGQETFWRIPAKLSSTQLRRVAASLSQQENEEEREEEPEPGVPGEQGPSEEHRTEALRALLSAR
T1 sequence 2: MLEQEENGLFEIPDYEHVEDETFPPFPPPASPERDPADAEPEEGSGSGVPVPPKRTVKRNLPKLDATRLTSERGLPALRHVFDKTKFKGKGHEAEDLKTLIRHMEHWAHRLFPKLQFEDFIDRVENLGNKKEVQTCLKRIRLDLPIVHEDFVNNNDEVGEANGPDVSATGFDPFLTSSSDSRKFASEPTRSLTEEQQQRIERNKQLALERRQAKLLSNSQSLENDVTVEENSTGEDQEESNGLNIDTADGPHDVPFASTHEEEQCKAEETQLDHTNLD
Description: fluorescence anisotropy; Hill n = 1.2 ± 0.2; 30 C; 20 mM Hepes pH 7.5, 125 mM NaCl, 2 mM DTT, 0.01 mM zinc acetate (Buffer A); EMSA 15 min RT + 15 min 4 C; FA 15 min 30 C, 10 nM DNA. To be noted: protein: recombinant; tags: His (Tim) and His-GST (Tipin), cleaved with 3C; copies: 1;1; label: 5'-FAM. A general note: Polarisation of emitted light reports the rotation of a fluorescent probe.

The target in data set [1] is RPA70/32/14 (RPA70ABC/32D-WH/14) (mouse, UniProt Q8VEE4;Q99KL9;Q9CQ71 190-623;43-270;1-121). Description: EMSA; 1 RPA with excess DNA, up to 2 RPA at substoichiometric DNA; 20 mM Hepes pH 7.5, 125 mM NaCl, 2 mM DTT, 0.01 mM zinc acetate (Buffer A); EMSA 15 min RT + 15 min 4 C; FA 15 min 30 C, 10 nM DNA. The conditions noted are these: protein: recombinant; tags: His; copies: 1;1;1; label: 5'-FAM. Background: A gel shift assay detects complexes by their altered migration in electrophoresis.
Sequence of RPA70/32/14 (RPA70ABC/32D-WH/14) (Q8VEE4 190-623, chain 1 of 3): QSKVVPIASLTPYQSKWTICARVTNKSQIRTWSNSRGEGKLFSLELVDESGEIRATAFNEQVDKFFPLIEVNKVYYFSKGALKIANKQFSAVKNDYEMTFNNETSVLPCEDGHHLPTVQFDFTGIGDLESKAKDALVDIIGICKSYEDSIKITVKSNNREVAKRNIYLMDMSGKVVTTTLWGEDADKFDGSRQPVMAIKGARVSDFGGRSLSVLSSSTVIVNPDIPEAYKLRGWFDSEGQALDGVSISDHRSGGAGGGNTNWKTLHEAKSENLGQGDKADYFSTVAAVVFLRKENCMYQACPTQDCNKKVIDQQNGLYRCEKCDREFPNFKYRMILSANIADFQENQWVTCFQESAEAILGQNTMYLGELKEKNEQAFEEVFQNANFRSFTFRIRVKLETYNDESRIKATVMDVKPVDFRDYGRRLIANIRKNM
Sequence of RPA70/32/14 (RPA70ABC/32D-WH/14) (chain, as listed by the source, chain 2 of 3): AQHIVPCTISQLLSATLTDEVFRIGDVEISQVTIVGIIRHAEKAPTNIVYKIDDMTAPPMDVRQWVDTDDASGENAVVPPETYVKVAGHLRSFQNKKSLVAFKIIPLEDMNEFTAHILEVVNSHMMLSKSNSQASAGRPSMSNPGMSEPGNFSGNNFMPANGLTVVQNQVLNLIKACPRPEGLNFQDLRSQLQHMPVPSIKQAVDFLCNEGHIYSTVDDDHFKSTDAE
Sequence of RPA70/32/14 (RPA70ABC/32D-WH/14) (Q9CQ71 whole entry, chain 3 of 3): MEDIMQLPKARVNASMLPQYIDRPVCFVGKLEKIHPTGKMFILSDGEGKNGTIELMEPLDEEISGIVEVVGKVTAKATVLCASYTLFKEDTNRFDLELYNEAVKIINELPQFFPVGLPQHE

Broadly, the Kd is the constant that tells how readily two partners part at equilibrium. As for ACGCTGCCGAATTCTACCAGTGCCTTGCTA (ssDNA) [30 nt FAM ssDNA], in the data set with Tim-Tipin complex, the Kd came to 1700 ± 200 nM. The binding result in data set [1] is listed as “binds”.
